Measured values published in PMC7979726 (Nature Communications, 2021).

Target: T1, Mcm3 (S. cerevisiae, UniProt P24279 1-971)
T1 construct: Mcm3, S. cerevisiae; native protein without extra amino acids after SUMO cleavage; source: Champion pET SUMO Protein Expression System (Invitrogen); purified individually; protocols in Supplementary Data; not shown: SUMO, N-terminal, cleaved
Experiment: SEC; individually purified subunits mixed and the complex (Mcm5/3/7, Mcm2/6/4 or MCM-Cdt1) isolated by gel filtration
Conditions: both partners purified

T1 sequence (P24279 whole entry): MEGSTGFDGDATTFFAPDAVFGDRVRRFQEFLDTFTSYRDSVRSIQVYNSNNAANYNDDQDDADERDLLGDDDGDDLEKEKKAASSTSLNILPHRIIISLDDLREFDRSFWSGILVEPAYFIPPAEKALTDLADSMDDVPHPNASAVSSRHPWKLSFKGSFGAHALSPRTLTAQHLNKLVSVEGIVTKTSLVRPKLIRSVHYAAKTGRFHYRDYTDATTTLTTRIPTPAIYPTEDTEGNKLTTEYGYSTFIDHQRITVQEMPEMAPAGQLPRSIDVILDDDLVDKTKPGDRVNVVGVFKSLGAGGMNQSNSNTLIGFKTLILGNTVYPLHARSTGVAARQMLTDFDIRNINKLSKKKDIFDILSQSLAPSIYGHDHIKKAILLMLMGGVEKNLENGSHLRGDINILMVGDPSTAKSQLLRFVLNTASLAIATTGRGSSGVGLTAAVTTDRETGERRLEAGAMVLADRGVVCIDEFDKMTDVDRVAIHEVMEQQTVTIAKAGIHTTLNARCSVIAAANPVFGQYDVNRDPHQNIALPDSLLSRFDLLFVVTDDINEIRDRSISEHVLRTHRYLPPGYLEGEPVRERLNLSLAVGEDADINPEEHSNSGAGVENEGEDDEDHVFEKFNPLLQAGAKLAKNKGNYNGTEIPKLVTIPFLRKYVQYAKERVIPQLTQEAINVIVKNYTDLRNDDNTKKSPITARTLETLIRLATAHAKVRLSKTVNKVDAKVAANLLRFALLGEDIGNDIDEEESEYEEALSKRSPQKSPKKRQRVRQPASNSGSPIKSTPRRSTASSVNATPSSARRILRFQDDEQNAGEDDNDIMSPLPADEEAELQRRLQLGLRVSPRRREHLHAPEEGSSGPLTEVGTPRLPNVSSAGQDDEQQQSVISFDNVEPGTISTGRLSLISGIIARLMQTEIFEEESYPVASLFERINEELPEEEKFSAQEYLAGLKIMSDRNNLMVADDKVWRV

B1: Mcm7 (natural protein, S. cerevisiae, UniProt P38132 1-845, looked up)
chain: MSAALPSIQLPVDYNNLFNEITDFLVTFKQDTLSSDATRNENEDENLDAENIEQHLLEKGPKYMAMLQKVANRELNSVIIDLDDILQYQNEKFLQGTQADDLVSAIQQNANHFTELFCRAIDNNMPLPTKEIDYKDDVLDVILNQRRLRNERMLSDRTNEIRSENLMDTTMDPPSSMNDALREVVEDETELFPPNLTRRYFLYFKPLSQNCARRYRKKAISSKPLSVRQIKGDFLGQLITVRGIITRVSDVKPAVEVIAYTCDQCGYEVFQEVNSRTFTPLSECTSEECSQNQTKGQLFMSTRASKFSAFQECKIQELSQQVPVGHIPRSLNIHVNGTLVRSLSPGDIVDVTGIFLPAPYTGFKALKAGLLTETYLEAQFVRQHKKKFASFSLTSDVEERVMELITSGDVYNRLAKSIAPEIYGNLDVKKALLLLLVGGVDKRVGDGMKIRGDINVCLMGDPGVAKSQLLKAICKISPRGVYTTGKGSSGVGLTAAVMKDPVTDEMILEGGALVLADNGICCIDEFDKMDESDRTAIHEVMEQQTISISKAGINTTLNARTSILAAANPLYGRYNPRLSPLDNINLPAALLSRFDILFLMLDIPSRDDDEKLAEHVTYVHMHNKQPDLDFTPVEPSKMREYIAYAKTKRPVMSEAVNDYVVQAYIRLRQDSKREMDSKFSFGQATPRTLLGIIRLSQALAKLRLADMVDIDDVEEALRLVRVSKESLYQETNKSKEDESPTTKIFTIIKKMLQETGKNTLSYENIVKTVRLRGFTMLQLSNCIQEYSYLNVWHLINEGNTLKFVDDGTMDTDQEDSLVSTPKLAPQTTASANVSAQDSDIDLQDA
notes: Mcm7, S. cerevisiae; native protein without extra amino acids after SUMO cleavage; source: Champion pET SUMO Protein Expression System (Invitrogen); purified individually; protocols in Supplementary Data; not shown: SUMO, N-terminal, cleaved
Question: Does B1 bind?
Answer: Result: binds
